The source of these data is patent US20120201781A1 (AbbVie / Abbott, published 2012).

For assay [1], the target named is T1, murine IL-1α (mouse, UniProt P01582 115-270).
T1 construct: also called mIL-1α; mouse IL-1α
T1 sequence (looked up): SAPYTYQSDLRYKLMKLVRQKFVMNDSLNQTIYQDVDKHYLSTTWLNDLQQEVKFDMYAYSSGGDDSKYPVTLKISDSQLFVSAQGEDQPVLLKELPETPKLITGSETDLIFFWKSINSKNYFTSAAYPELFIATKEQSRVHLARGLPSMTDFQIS
As to the kind of experiment: affinity, method not named for this table (Biacore elsewhere). In general terms: In SPR one partner is held on a chip, and binding of the other changes the refractive index at the surface.

The target in assay [2] is T1, murine IL-1α. Kind of assay: cell-based or functional assay.
Assay [3] addresses T2, murine IL-1β (mouse, UniProt P10749 118-269).
T2 construct: also called mIL-1β; mouse IL-1β
T2 sequence (looked up): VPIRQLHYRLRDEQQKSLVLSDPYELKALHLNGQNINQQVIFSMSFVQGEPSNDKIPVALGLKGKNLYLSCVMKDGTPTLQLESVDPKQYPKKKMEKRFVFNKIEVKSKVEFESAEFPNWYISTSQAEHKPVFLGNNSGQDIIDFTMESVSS
Kind of assay: affinity, method not named for this table (Biacore elsewhere).

Assay [4] concerns the target T2, murine IL-1β. Kind of assay: cell-based or functional assay.
Assay [5] concerns the target T3, recombinant human IL-1α (human, UniProt P01583 113-271).
T3 construct: Purified recombinant protein bought from R&D Systems; also called hIL-1α; rhIL-1α
T3 sequence: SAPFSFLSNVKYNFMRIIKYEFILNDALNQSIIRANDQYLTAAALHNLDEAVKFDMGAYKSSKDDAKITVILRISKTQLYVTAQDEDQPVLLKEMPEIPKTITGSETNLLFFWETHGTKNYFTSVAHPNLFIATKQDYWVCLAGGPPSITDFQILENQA
As to the kind of experiment: SPR (Biacore). The protocol: (§1) The equilibrium dissociation constant (M) of the reaction between DVD-Ig molecule and rhIL1α/β was then calculated from the kinetic rate constants by the following formula: KD=koff/kon. Aliquots of rhIL1α/β samples were also simultaneously injected over a blank reference and reaction CM surface to record and subtract any nonspecific binding background to eliminate the majority of the refractive index change and injection noise. Surfaces were regenerated with two subsequent […] injections of 10 mM Glycine (pH 1.5) at a flow rate of […]. The anti-Fc antibody immobilized surfaces were completely regenerated and retained their full capture capacity over twelve cycles. The apparent stoichiometry of the captured DVD-Ig-rhIL1α/β complex was calculated under saturating binding conditions (steady-state equilibrium) using the following formula: […]
(§2) The affinity of the two DVD-Ig binding proteins to hIL-1 as compared to the affinity of chimeric antibodies to hIL-1 was similar as indicated by the evaluation of the stoichiometry to IL-1. Both chimeric antibodies, being bivalent monospecific, bound to IL-1α and IL-1β on Biacore with a stoichiometry of 1.6 and 1.7, respectively. This is common for an IgG due to inter-molecular interference when antibodies are immobilized densely on the Biacore sense chip resulting in stoichiometry being in the range from 1.5 to 2.0.

The target in assay [6] is T3, recombinant human IL-1α. As to the kind of experiment: SPR (Biacore), hIL-1α as 2nd antigen after hIL-1β. The protocol: (§3) In addition, tetravalent dual-specific antigen binding of DVD-Ig binding protein was also analyzed by Biacore (Table 14). DVD-Ig binding protein was first captured via a goat anti-human Fc antibody on the Biacore sensor chip, and the first antigen was injected and a binding signal observed. As the DVD-Ig binding protein was saturated by the first antigen, the second antigen was then injected and the second signal observed. This was done either by first injecting IL-1β then IL-1α or by first injecting IL-1α followed by IL-1β for DVD2-Ig binding protein. In either sequence, a dual-binding activity was detected. Similar results were obtained for DVD1-Ig binding protein. Thus, each DVD-Ig binding protein was able to bind both antigens simultaneously as a dual-specific tetravalent molecule. […] Upon the injection of the second antigen, while DVD-Ig binding protein was already occupied by the first antigen, the stoichiometry of both DVD-Igs binding protein to the second antigen (i.e., hIL-1α or hIL-1β was between 1.0 and 1.3. Thus, DVD-Ig binding protein was able to bind two IL-1α and two IL-β molecules. DVD-Ig binding protein was first captured via a goat anti-human Fc antibody on the Biacore sensor chip, and the first antigen was injected and a binding signal observed, followed by the injection of the second antigen.

The target of assay [7] is T4, recombinant human IL-1β (human, UniProt P01584 117-269).
T4 construct: Recombinant protein; also called hIL-1β; rhIL-1β
Kind of assay: SPR (Biacore), hIL-1β as 1st antigen. The protocol: as §3

For assay [8], the target named is T4, recombinant human IL-1β. As to the kind of experiment: SPR (Biacore 3000), saturating binding. The protocol:
as §1, with “The association and dissociation rate constants, kon (M-1s-1) and koff (s-1) were determined under a continuous flow rate of 25 ml/minute. […] The equilibrium” for “The equilibrium”
as §2

Assay [9] concerns the target T3, recombinant human IL-1α. As to the kind of experiment: SPR (Biacore 3000), saturating binding. The protocol: as §1, with “The association and dissociation rate constants, kon (M-1s-1) and koff (s-1) were determined under a continuous flow rate of 25 ml/minute. […] The equilibrium” for “The equilibrium”
as §2

Assay [10] addresses T3, recombinant human IL-1α. As to the kind of experiment: SPR (Biacore), hIL-1α as 1st antigen. The protocol:
as §3

In assay [11] the target is T4, recombinant human IL-1β. As to the kind of experiment: cell-based or functional assay.
Assay [12] addresses T3, recombinant human IL-1α. As to the kind of experiment: cell-based or functional assay.
Assay [13] addresses T3, recombinant human IL-1α. Kind of assay: cell-based or functional assay. The source holds these as a separate data set.
The target in assay [14] is T4, recombinant human IL-1β. As to the kind of experiment: SPR (Biacore 3000), binder captured via goat anti-human IgG Fc. The protocol: (§4) Approximately, 5000 RU of goat anti-human IgG Fcγ fragment specific polyclonal antibody (Pierce Biotechnology Inc, Rockford, Ill.) diluted in 10 mM sodium acetate (pH 4.5) was directly immobilized across a CM5 research grade biosensor chip using a standard amine coupling kit according to manufacturer's instructions and procedures at […]. Unreacted moieties on the biosensor surface were blocked with ethanolamine. Modified carboxymethyl dextran surface in flowcell 2 and 4 was used as a reaction surface. Unmodified carboxymethyl dextran without goat anti-human IgG in flow cell 1 and 3 was used as the reference surface. For kinetic analysis, rate equations derived from the 1:1 Langmuir binding model were fitted simultaneously to association and dissociation phases of all ten injections (using global fit analysis) using the Bioevaluation 4.0.1 software. Purified DVD-Ig samples were diluted in HEPES-buffered saline for capture across goat anti-human IgG Fc specific reaction surfaces and injected over reaction matrices at a flow rate of […]. The association and dissociation rate constants, kon (M-1s-1) and koff (s-1) were determined under a continuous flow rate of 25 ml/minute. […] The equilibrium dissociation constant (M) of the reaction between DVD-Ig molecule and rhIL1α/β was then calculated from the kinetic rate constants by the following formula: KD=koff/kon. Aliquots of rhIL1α/β samples were also simultaneously injected over a blank reference and reaction CM surface to record and subtract any nonspecific binding background to eliminate the majority of the refractive index change and injection noise. Surfaces were regenerated with two subsequent […] injections of 10 mM Glycine (pH 1.5) at a flow rate of […]. The anti-Fc antibody immobilized surfaces were completely regenerated and retained their full capture capacity over twelve cycles. The apparent stoichiometry of the captured DVD-Ig-rhIL1α/β complex was calculated under saturating binding conditions (steady-state equilibrium) using the following formula: […]

Assay [15] has as its target T3, recombinant human IL-1α. The description is as above. The protocol:
as §4

Assay [16] concerns the target T4, recombinant human IL-1β. As to the kind of experiment: SPR (Biacore), hIL-1β as 2nd antigen after hIL-1α. The protocol:
as §3

What is called Kd is a measure of binding affinity in units of concentration. The koff is the first-order rate constant of dissociation. For orientation: kon means a measure of how fast the partners come together.

B1: mouse anti-mouse IL-1α monoclonal antibody 9H10 (antibody, V domains shown)
VH: QVILKESGPGILQPSQTLSLTCSFSGFSLSTYGTAVNWIRQPSGKGLEWLAQIGSDDRKLYNPFLKSRITLSEDTSNSQVFLKITSVDTEDSATYYCANGVMEYWGLGTSVTVSS
VL: SIVMTQTPKFLLVSAGDRVTITCKASQSVNHDVAWYQQMPGQSPKLLIYFASNRYTGVPDRFTGSGYGTDFTFTISTVQAEDLAVYFCQQDYSSPYTFGGGTKLEIKR
notes: Mouse mAb from IL-1αβ double KO mice; also called anti-IL-1α (9H10)
As to B1, binding with murine IL-1α [1] was put at a Kd of 0.173 nM. The “IC50 (M), in vitro potency” value in the assay with murine IL-1α [2] is 2e-10 M.

B2: mIL-1α/β DVD-Ig binding protein (bispecific antibody, mouse IgG2a, kappa)
heavy: EVQLQQSGPELVKPGTSVKMSCKTSGYTFTSYVMHWVKQKPGQGLEWIGYIIPYNDNTKYNEKFKGKATLTSDKSSSTAYMELSSLTSEDSAVYYCARRNEYYGSSFFDYWGQGTTLTVSSAKTTAPSVYPLAPQVILKESGPGILQPSQTLSLTCSFSGFSLSTYGTAVNWIRQPSGKGLEWLAQIGSDDRKLYNPFLKSRITLSEDTSNSQVFLKITSVDTEDSATYYCANGVMEYWGLGTSVTVSSAKTTAPSVYPLAPVCGDTTGSSVTLGCLVKGYFPEPVTLTWNSGSLSSGVHTFPAVLQSDLYTLSSSVTVTSSTWPSQSITCNVAHPASSTKVDKKIEPRGPTIKPCPPCKCPAPNLLGGPSVFIFPPKIKDVLMISLSPIVTCVVVDVSEDDPDVQISWFVNNVEVHTAQTQTHREDYNSTLRVVSALPIQHQDWMSGKEFKCKVNNKDLPAPIERTISKPKGSVRAPQVYVLPPPEEEMTKKQVTLTCMVTDFMPEDIYVEWTNNGKTELNYKNTEPVLDSDGSYFMYSKLRVEKKNWVERNSYSCSVVHEGLHNHHTTKSFSRTPGK
light: DIQMTQSPASLSASVGETVTITCRGSGILHNYLVWYQQKQGKSPQLLVYSAKILADGVPSRFSGSGSGTQYSLKINSLQPEDFGSYYCQHFWSTPFTFGSGTKLEIKRADAAPTVSIFPPSIVMTQTPKFLLVSAGDRVTITCKASQSVNHDVAWYQQMPGQSPKLLIYFASNRYTGVPDRFTGSGYGTDFTFTISTVQAEDLAVYFCQQDYSSPYTFGGGTKLEIKRADAAPTVSIFPPSSEQLTSGGASVVCFLNNFYPKDINVKWKIDGSERQNGVLNSWTDQDSKDSTYSMSSTLTLTKDEYERHNSYTCEATHKTSTSPIVKSFNRNEC
notes: V(anti-mIL-1β 10G11)-linker-V(anti-mIL-1α 9H10)-murine constant region (Cγ2a and Cκ); also called mDVD4-Ig; murine IL-1α/β DVD4-Ig
Consider B2, for which the Kd in the assay with murine IL-1β [3] is 0.694 nM; with murine IL-1α [1] it was 0.766 nM. Further, the “IC50 (M), in vitro potency” value with murine IL-1β [4] amounted to 8e-10 M; with murine IL-1α [2], 2e-09 M.

B3: hIL-1α/β DVD1-Ig binding protein (bispecific antibody, human IgG1, kappa)
heavy: not shown
light: NIVLTQSPASLAVSLGQRATISCRASESVDSYGNSYMHWYQQKPGQPPKLLIYLASNLESGVPARFSGSGSRTDFTLTIDPVEADDAATYYCQQNNEDPFTFGSGTKLEIKRNIQMTQTTSSLSASLGDRVTISCRASQDISNCLNWYQQKPDGTVKLLIYYTSRLHSGVPSRFSGSGSGTDYSLTISNLEQEDIATYFCQQGKTLPYAFGGGTKLEINRRTVAAPSVFIFPPSDEQLKSGTASVVCLLNNFYPREAKVQWKVDNALQSGNSQESVTEQDSKDSTYSLSSTLTLSKADYEKHKVYACEVTHQGLSSPVTKSFNRGEC
notes: 13F5.G5 variable domains fused directly (no linker) to the N-terminus of 3D12.E3 variable domains, human Cγ1/Cκ
On to B3, for which the “fold lower affinity than the chimeric 3D12.E3 antibody” value with recombinant human IL-1α [5] lay within 2 to 3 fold. The “Stoichiometry hIL-1α:DVD-Ig” value was determined as 1.1 with recombinant human IL-1α [6] and 2.3 with recombinant human IL-1α [10]. The “Stoichiometry hIL-1β:DVD-Ig” value amounted to 1.5 in the assay with recombinant human IL-1β [7] and 1 with recombinant human IL-1β [16]. The Stoichiometry is 1.5 in the assay with recombinant human IL-1β [8] and 1.8 with recombinant human IL-1α [9]. Besides, the “Potency (IC50) M, MRC-5 bioassay” value with recombinant human IL-1β [11] amounted to 3.1 nM; with recombinant human IL-1α [12], 2.3 nM. The “neutralizing activity in MRC-5 bioassay, fold less than the chimeric antibodies” value in the assay with recombinant human IL-1α [13] was determined as 3 fold. Moreover, the results for the dissociation constant (Kd) in the assay with recombinant human IL-1β [14] and with recombinant human IL-1α [15] were 2.6 nM and 2.83 nM, respectively. Besides, the koff with recombinant human IL-1β [14] worked out at 0.00159 s⁻¹; in the assay with recombinant human IL-1α [15], 0.000105 s⁻¹. Also, the kon with recombinant human IL-1β [14] came to 609000 M⁻¹ s⁻¹; in the assay with recombinant human IL-1α [15], 37000 M⁻¹ s⁻¹.

B4: mouse anti-mouse IL-1β monoclonal antibody 10G11 (antibody, V domains shown)
VH: EVQLQQSGPELVKPGTSVKMSCKTSGYTFTSYVMHWVKQKPGQGLEWIGYIIPYNDNTKYNEKFKGKATLTSDKSSSTAYMELSSLTSEDSAVYYCARRNEYYGSSFFDYWGQGTTLTVSS
VL: DIQMTQSPASLSASVGETVTITCRGSGILHNYLVWYQQKQGKSPQLLVYSAKILADGVPSRFSGSGSGTQYSLKINSLQPEDFGSYYCQHFWSTPFTFGSGTKLEIKR
notes: Mouse mAb from IL-1αβ double KO mice; also called anti-IL-1β (10G11)
Regarding B4, the Kd in the assay with murine IL-1β [3] was found to be 0.23 nM. Besides, in the assay with murine IL-1β [4], the “IC50 (M), in vitro potency” value amounted to 3.7e-10 M.
